Test results as given in patent US20200109202A1.

What was measured:
[1] = target: human CD16A-158F ECD fused to monomeric Fc (human) (UniProt P08637); test: SPR, Biacore T200, receptor captured, 1:1 model
[2] = target: human CD16A-158V ECD fused to monomeric Fc (human) (UniProt P08637); test: SPR, Biacore T200, receptor captured, 1:1 model
Sequence of human CD16A-158V ECD fused to monomeric Fc (human) (P08637 17-208 F176V): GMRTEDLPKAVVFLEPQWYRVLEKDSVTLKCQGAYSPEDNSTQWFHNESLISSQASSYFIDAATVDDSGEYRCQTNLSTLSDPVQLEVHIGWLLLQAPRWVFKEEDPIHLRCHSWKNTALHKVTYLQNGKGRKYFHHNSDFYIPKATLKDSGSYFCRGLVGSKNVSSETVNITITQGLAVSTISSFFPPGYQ

Sequence of human CD16A-158F ECD fused to monomeric Fc (human) (P08637 17-208): as the sequence (P08637 17-208 F176V) above, with V160F counted along it

Substance | Kd [1] [nM] | koff [1] [s⁻¹] | kon [1] [M⁻¹ s⁻¹] | Kd [2] [nM] | koff [2] [s⁻¹] | kon [2] [M⁻¹ s⁻¹]
human IgG1 Fc-silenced (L234F/L235E/D265A) (antibody) | 34700 | 0.71 | 20400 | – | – | –
human IgG1 (IgG1 Fc wildtype) (antibody) | 2720 | 0.0675 | 24800 | 424 | 0.00995 | 23500
human IgG1 Fc-enhanced (S239D/I332E) (antibody) | – | – | – | 13.5 | 0.00639 | 474000
